# Results published in patent publication US7314866B2, “Ku-70-derived Bax-suppressing peptides and use thereof for the protection of damaged cells” (Bloodcenter of Wisconsin, Inc., priority 2002, dated 2008).
# Where no end group is shown, it is not given here. The star is where a group is joined. Biotin = O=C1N[C@H]2[C@H](CS[C@H]2CCCCC(=O)*)N1
# Legend:
# [1] = molecular target: T1, interaction of Ku70 and Bax (Homo sapiens, UniProt Q07812); assay: Co-immunoprecipitation of endogenous Ku70 and Bax in cell lysates with added peptide; assay type: binding; conditions: peptide added to cell lysates
# T1 construct: endogenous in cells; HeLa and 293 cells for the V6 peptide
# T1 sequence (Q07812 whole entry): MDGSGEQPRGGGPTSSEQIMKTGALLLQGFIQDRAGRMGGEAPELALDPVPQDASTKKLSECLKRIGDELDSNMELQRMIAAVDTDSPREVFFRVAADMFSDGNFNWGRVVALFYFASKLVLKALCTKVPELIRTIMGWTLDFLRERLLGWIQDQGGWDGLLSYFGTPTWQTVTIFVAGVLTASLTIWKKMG
# Protocol: FIGS. 6A–D: HEK293T cells (10^7 cells) lysed in CHAPS buffer were incubated with 200 uM negative control (NC) peptide or (A) VPMLK (V5, SEQ ID NO: 1), (B) PMLKE (P5, SEQ ID NO: 2), (C) PMLK (P4, SEQ ID NO: 3), and (D) MLKE (M4, SEQ ID NO: 6) at the indicated concentrations for 1 hour. Immunoprecipitation was performed with anti-Ku70 monoclonal antibody or anti-Bax polyclonal antibody using CHAPS buffer as described in Methods. Mouse IgG and pre-immune rabbit serum (NRS) were used as negative controls.
# By testing several deletion mutants of the Ku70 protein, I have identified the Bax-binding domain in Ku70. The domain comprises 6 amino acids (VPMLKE, SEQ ID NO: 7). This peptide (Ku70 Peptide V6) inhibits the interaction of Ku70 and Bax at the concentration of 20–80 μM in lysates prepared from human cultured cells (HeLa cells and human kidney epithelial 293 cells).
# Endogenous protein: HEK293T (10^7 cells) were lysed in 200 ul of “CHAPS-based buffer” (150 mM NaCl, 10 mM Hepes, pH 7.4, 1.0% CHAPS) containing protease inhibitors (100 times dilution of Protease Inhibitors Cocktail; Sigma) according to the previously reported method (Hsu and Youle, J. Biol. Chem. 273:10777–10783, 1998). […]
# HEK293T cells = assay: Bax-induced apoptosis in HEK293T cells (pcDNA3-Bax transfection, Hoechst staining); assay type: cell-based, human; conditions: 2.0 ug pCMV-2B construct co-transfected with pcDNA3-Bax
# Protocol: FIG. 1 illustrates that new peptides designed from Ku70 show anti-Bax activity. FIG. 1A: scheme of Ku70 full-length (Ku70 wt), Ku701-577 (Ku70Δ578–609), or Ku70578-609 (Ku70Δ1–577). FIG. 1C: HEK293T cells were transfected with 1.0 ug of pCMV-2B-control vector (Control) or pcDNA3-Bax (Bax) together with 2.0 ug of pCMV-2B-Ku70 wt (Ku70 wt), pCMV-2B-Ku701-577 (Ku701-577), or pCMV-2B-Ku70578-609 (Ku70578-609). All the cells were also co-transfected with 0.5 ug pEGFP for the marking of transfected cells. Apoptosis in the transfected cells was analyzed 24 hours following transfection with Hoechst dye staining of the nucleus as described in Methods. FIG. 1D: HEK293T cells were incubated with 200 uM peptide composed of Ku70578-587 or Ku70596-600 for 4 hours using BioPorter reagent, and then transfected with 1.0 ug of pCDNA3-control vector (Control) or pcDNA3-Bax (Bax). The number of apoptotic cells was determined as described in FIG. 1C. FIG. 1E: HEK293T cells (10^6 cells) were incubated with 200 uM IPMIK (negative control peptide) or VPMLK (V5) and PMLKE (P5) peptides at the indicated concentrations for 1 hour and then incubated cells were transfected with 1.0 ug of pcDNA3-Bax. Also, unincubated cells were transfected with 1.0 ug of pcDNA3-Bax in the presence or absence of 200 uM z-VAD-fmk. The number of apoptotic cells was determined as described in FIG. 1C. FIG. 1F: Summary of the anti-Bax activity and sequence of all peptides used.
# HEK293T and HeLa cells were cultured in MEM supplemented with 10% fetal bovine serum (FBS) and Du145 cells and mouse embryonic fibroblasts (MEFs) were in DMEM with 10% FBS. Transfection of the plasmids was performed by SuperFect (Qiagen) according to the manufacturer's manual. Apoptosis was induced by pcDNA3-human Bax (Bax-encoding plasmid)-transfection, Staurosporin (STS)-treatment and UVC-irradiation. The amount of the plasmids, the concentration of STS, and the energy of UVC-irradiation are described in the figure legends. Apoptosis in the transfected cells was analyzed as follows: A plasmid encoding enhanced green fluorescent protein (EGFP) (0.5 ug to 10^6 cells) was transfected to all the groups to mark the transfected cells. After the treatment, cells were stained with Hoechst dye and cells with apoptotic nuclei were counted in GFP-expressing cells under the fluorescent microscope as described by Matsuyama, et al., J. Biol. Chem. 273:30995–31001, 1998. Each point in the figures showing percentages of apoptosis represents the mean +/−SE of three experiments. Caspase activities of cells were measured by detecting the cleavage of fluorogenic substrate of Caspase (DEVD-afc) as previously described.
# BioPorter-based peptide delivery was performed 4 hours before apoptosis induction.
# endogenous Bax = molecular target: T2, endogenous Bax (Homo sapiens, UniProt Q07812); assay: Co-immunoprecipitation of Flag-tagged Ku70 mutants and endogenous Bax; assay type: binding; conditions: HEK293T cells
# T2 construct: endogenous in cells; host or cells: HEK293T
# T2 sequence (Q07812 whole entry): as above
# Protocol: Endogenous protein: HEK293T (10^7 cells) were lysed in 200 ul of “CHAPS-based buffer” (150 mM NaCl, 10 mM Hepes, pH 7.4, 1.0% CHAPS) containing protease inhibitors (100 times dilution of Protease Inhibitors Cocktail; Sigma) according to the previously reported method (Hsu and Youle, J. Biol. Chem. 273:10777–10783, 1998). After precleaning of 600 ul of the sample with 50 ul of Protein G-Sepharose at 4° C. for 1 hour, immunoprecipitations were performed by incubating 200 ul of lysates with 20 ul of Protein G-Sepharose preabsorbed with 2 ug of anti-Bax polyclonal (BD-Pharmingen) or anti-Ku70 monoclonal antibody (BD-Pharmingen) at 4° C. for 2 hours. In some cases, 2 ug of anti-Bax monoclonal antibody (clone 6A7, BD Pharmingen) was used to detect active form of Bax. After extensive washing in the buffer, beads were boiled in 40 ul of Laemmli buffer and 20 ul of the eluted proteins were subjected to SDS-PAGE. Co-precipitation of biotin-labeled peptides and endogenous Bax using streptavidin beads: HEK293T cells (10^7 cells) lysed in 200 ul CHAPS-based buffer were incubated with biotin-labeled negative control (NC) peptide or VPMLK (V5; SEQ ID NO: 1) peptide for 1 hour. The concentrations of NC and V5 peptide labeled with biotin are described in the figure legends. […]
# human Bax [2] = molecular target: T3, human Bax (human, UniProt Q07812 1-192); assay: fluorescence microscopy of HeLa cells and of Du145 cells with or without pcDNA3-Bax
# T3 construct: Protein in cell lysates or cells, not purified; also called endogenous Bax; pcDNA3-Bax (human)
# T3 sequence (Q07812 whole entry): as above
# Protocol: HeLa cells and transfected or untransfected Du145 cells with pcDNA3-Bax were incubated with 200 uM FITC-labeled VPMLK (V5; SEQ ID NO: 1) peptide for 1 hour prior to microscopic analysis by fluorescent microscope. For immunostaining, cells incubated with FITC-V5 peptide for 1 hour were fixed with 4% paraformaldehyde in phosphate buffered saline (PBS). Cells were permeablized with 0.5% Triton X-100 and 0.05% Tween-20 in PBS. Fixed cells were incubated in PBS containing 5% BSA at 37 C, and stained with anti-Bax monoclonal antibody (BD-Pharmingen, dilution 1:50) followed by the detection of Texas-Red labeled anti-mouse IgG (Jackson ImmunoResearch, dilution 1:100).
# [3] = molecular target: T4, endogenous Bax in Ku70-deficient mouse embryonic fibroblasts (mouse, UniProt Q07813 1-192); assay: Scatchard analysis; FITC fluorescence before and after immunoprecipitation of Bax from Ku70-deficient MEF cytosol
# T4 construct: also called endogenous Bax in Ku70-deficient MEFs
# T4 sequence (Q07813 whole entry): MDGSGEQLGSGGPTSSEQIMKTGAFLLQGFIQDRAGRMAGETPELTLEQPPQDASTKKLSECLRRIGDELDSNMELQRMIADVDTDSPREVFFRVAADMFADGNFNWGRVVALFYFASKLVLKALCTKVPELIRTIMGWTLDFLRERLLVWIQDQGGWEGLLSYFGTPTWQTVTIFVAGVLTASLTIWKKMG
# Protocol: The interaction of BIP and Bax was confirmed by experiments using the system of biotin-labeled BIP and streptavidin beads. Biotin-labeled BIP (biotin-VPMLK; SEQ ID NO: 1), but not negative control peptide (biotin-IPMIK; SEQ ID NO: 5) precipitated Bax from the cell lysates when the streptavidin beads were added to the samples.
# Ku70-deficient MEFs (10^7 cells) were lysed in 200 ul of "detergent-free hypotonic buffer" (hypotonic (5 mM NaCl) phosphate buffered saline, pH 7.4) containing protease inhibitors (100 times dilution of Protease Inhibitors Cocktail; Sigma) according to the previously reported method (Hsu and Youle, supra, 1998). For Scatchard analysis, the cytosol fraction was used and NaCl was added to prepare the isotonic condition before immunoprecipitation as previously reported (Hsu and Youle, supra, 1998). […] FITC fluorescence of pre-immunoprecipitation ("B"+"F") and the supernatant following immunoprecipitation ("F") were measured by fluorescence microplate reader (Molecular Devices), and the values of "B+F" and "B" were calculated. Kd was calculated by Scatchard plot. […] No significant binding of FITC-V5 to the cellular components was detected in Bax-immunodepleted samples.
# human Bax [4] = molecular target: T3, human Bax; assay: streptavidin bead pull-down from HEK293T CHAPS lysates, Western blot of Bax
# Protocol: Endogenous protein: HEK293T (10^7 cells) were lysed in 200 ul of "CHAPS-based buffer" (150 mM NaCl, 10 mM Hepes, pH 7.4, 1.0% CHAPS) containing protease inhibitors (100 times dilution of Protease Inhibitors Cocktail; Sigma) according to the previously reported method (Hsu and Youle, *J. Biol. Chem.* 273:10777–10783, 1998). After pre-cleaning of 600 ul of the sample with 50 ul of Protein G-Sepharose at 4° C. for 1 hour, immunoprecipitations were performed by incubating 200 ul of lysates with 20 ul of Protein G-Sepharose preabsorbed with 2 ug of anti-Bax polyclonal (BD-Pharmingen) or anti-Ku70 monoclonal antibody (BD-Pharmingen) at 4° C. for 2 hours. In some cases, 2 ug of anti-Bax monoclonal antibody (clone 6A7, BD Pharmingen) was used to detect active form of Bax. After extensive washing in the buffer, beads were boiled in 40 ul of Laemmli buffer and 20 ul of the eluted proteins were subjected to SDS-PAGE. *Co-precipitation of biotin-labeled peptides and endogenous Bax using streptavidin beads*: HEK293T cells (10^7 cells) lysed in 200 ul CHAPS-based buffer were incubated with biotin-labeled negative control (NC) peptide or VPMLK (V5; SEQ ID NO: 1) peptide for 1 hour. The concentrations of NC and V5 peptide labeled with biotin are described in the figure legends. […]
Molecule,Effect on the interaction of Ku70 and Bax [1],Suppression of Bax-induced apoptosis by co-transfected Ku70 mutant (HEK293T cells),Binding of Flag-tagged Ku70 mutant to endogenous Bax (endogenous Bax),other results
"Ku70 Peptide NC: immediate next six amino acid sequence of Ku70, negative control (LGKFTV) [reference compound]",did not affect the interaction of Ku70 and Bax,–,–,–
Ku701-577: Ku70 mutant deleted of amino acids 578–609,–,not,did not,–
Ku70578-609: Flag-tagged Ku70 mutant expressing the amino acids 578–609 of Ku70 (VPMLKEACRAYGLKSGLKKQELLEALTKHFQD; also: Flag-tagged),–,suppressed Bax-induced apoptosis,binds endogenous Bax,–
MLKE [four amino acid deletion peptide],did not interfere with Bax-Ku70 interaction,–,–,–
"VPMLK (also: FITC-labeled, position of label not given here, also called FITC-BIP; FITC-V5) [FITC-labeled BIP (VPMLK; SEQ ID NO: 1)]",–,–,–,binding result (human Bax [2]): binds; Kd [3]: 1300 nM
Biotin-IPMIK (also called biotin-labeled negative control (NC) peptide) [biotin-IPMIK (SEQ ID NO: 5) negative control peptide],–,–,–,binding result (human Bax [4]): no binding (tested: 200 uM)
